Measured values published in article PMC4881466.

Target: Lys69 (UniProt position 69, KALAVKVFKMT)
Experiment: UV-vis
Conditions: not stated (100 mM buffers); 100 mM sodium phosphate/citrate (pH 4-6), sodium phosphate (pH 6.2-8.6), sodium carbonate (pH > 8.6); ferrous-deoxy, no exogenous ligand

Non-symbiotic hemoglobin 2 (AHb2) H66L mutant (Arabidopsis thaliana; H66L)
pKa: 10 ± 0.2
